For the data set, the system named is MS2 coat protein. Nature of the data set: apparent KD of MS2 coat protein; designed switch direction (-1 OFF switch, 1 ON switch): 1; higher = weaker reporter binding. A digest of the protocol: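 Stalled E. coli RNA polymerase transcribed designed RNA switches on Illumina chips, which were then titrated with SNAP-549-labelled MS2 coat protein, doubling from 0.7 or 1.5 nM to 3 µM. Steps lasted from 0.8–1.5 h at the lowest concentration to 10–20 min at the highest. The apparent KD is each design's median over clusters of curve-fitted normalised fluorescence.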

Setting [1] is: input ligand: microRNA oligo, concentration not stated.
The mark [2] stands for this setting: Eterna round: R95, input ligand: FMN 200 uM.
[3] abbreviates: Eterna round: R95, input ligand: microRNA oligo, concentration not stated.
The mark [4] stands for this setting: Eterna round: R95, input ligand: none.

Regarding “UGGUACAUGGGAGGAUAUCUCAUGGAGACAUGAGGAUCACCCAUGUAGAUGGCCGGUAACCGGAGAGAGAAGGCCCAUGUACCU [JL SSNG1 3.67] (Eterna round: R96, puzzle: Same State NG 2)”, the “apparent KD of MS2 coat protein” value (input ligand: FMN 200 uM) worked out at 79.6 nM, the “apparent KD of MS2 coat protein” value under setting [1] was 152 nM and the “apparent KD of MS2 coat protein” value (input ligand: none) is 198 nM.

In the case of “UGGUACAUGGGAGGAUAUCUCGUGGAGACAUGAGGAUCACCCAUGUAGAUGGCCGGUAACCGGAGAGAGAAGGCCCAUGUACCU [JL SSNG1 3.68] (Eterna round: R96, puzzle: Same State NG 2)”, the “apparent KD of MS2 coat protein” value is 66.9 nM (input ligand: FMN 200 uM), 65.4 nM under setting [1] and 159 nM (input ligand: none).

For the sequence “UGGUACAUGGGAGGAUAUGGAGUGAUGACAUGAGGAUCACCCAUGUUAAAUAUGCCGAGAGGCAACUAGAAGGCCCAUGUACCU [JL SSNG1 3.98] (Eterna round: R96, puzzle: Same State NG 2)”, the “apparent KD of MS2 coat protein” value runs as follows: (input ligand: FMN 200 uM) 22.3 nM; under setting [1], 298 nM; (input ligand: none) 418 nM.

For the sequence “UGGUACAUGGGAGGAUAUGGAGUGAUGACAUGAGGAUCACCCAUGUUAUAAAUGCCGAGAGGCAACUAGAAGGCCCAUGUACCU [JL SSNG1 3.95] (Eterna round: R96, puzzle: Same State NG 2)”, the “apparent KD of MS2 coat protein” value (input ligand: FMN 200 uM) is 23.2 nM, the “apparent KD of MS2 coat protein” value under setting [1] turned out to be 149 nM and the “apparent KD of MS2 coat protein” value (input ligand: none) worked out at 149 nM.

As for “UGUACCUUCACAGGAUAUCAUGCGAAAAUUGCGUGAGAAGGGUGAAUACUGUCUUUCUAAGAGCACAUGAGGAUCACCCAUGUA [SameState NG1 #59] (Eterna round: R96, puzzle: Same State NG 1)”, the “apparent KD of MS2 coat protein” value came to 195 nM (input ligand: FMN 200 uM), 206 nM under setting [1] and 278 nM (input ligand: none).

For the sequence “UGUCCAGCCUGAGCUGGACAAAAGCAUGUACAUGAGGAUCACCCAUGUUCAUGUACAAGCUUUUUGCUCGUCUUAAC [salish99_208a_r3_033] (puzzle: Sensor for hsa-mir-208a)”, the “apparent KD of MS2 coat protein” value under setting [2] was 354 nM, the “apparent KD of MS2 coat protein” value under setting [3] worked out at 14.1 nM and the “apparent KD of MS2 coat protein” value under setting [4] was 465 nM.

Take “UGUUAACAUGAGGAUCACCCAUGUCAAAUGAAUCGAGGAUAUGGGAAGGAAGAAGAGAAACUAGAAGGCGAAGUUG [Altered State 1-4 - Jieux - Same State 1] (puzzle: Same State 1)”: the “apparent KD of MS2 coat protein” value by setting is: under setting [2], 835 nM; under setting [3], 56.8 nM; under setting [4], 216 nM.

For the sequence “UGUUGUAAUACAGGAUAUAUAUUAUUUUUAUUUAUAGAAGGGUAAUCACAUGAGGAUCACCCAUGUAUAUACGAGGAAGAAGAG [JMF's solution 3] (Eterna round: R96, puzzle: Same State NG 1)”, the “apparent KD of MS2 coat protein” value under setting [1] was 139 nM.

Turning to “UGUUGUAUUACAGGAUAUCUAGUAUUUUUAAUUAGAGAAGGGUAUUCACAUGAGGAUCACCCAUGUAUAUACGAGGAAGUUGUG [JMF's solution 48] (Eterna round: R96, puzzle: Same State NG 1)”, the “apparent KD of MS2 coat protein” value under setting [1] amounted to 34 nM.

Consider “UGUUGUAUUACAGGAUAUCUAGUAUUUUUGUUUAGAGAAGGGUAUUCACAUGAGGAUCACCCAUGUAUAUACGAGGAAGUUGUG [JMF's solution 47] (Eterna round: R96, puzzle: Same State NG 1)”, for which, under setting [1], the “apparent KD of MS2 coat protein” value came to 42.3 nM.

Take “UGUUGUAUUACAGGAUAUCUAUGAUUUUUAUCUAGAGAAGGGUAUUCACAUGAGGAUCACCCAUGUAUAUACGAGGAAGUUGUG [JMF's solution 69] (Eterna round: R96, puzzle: Same State NG 1)”: the “apparent KD of MS2 coat protein” value under setting [1] turned out to be 25.1 nM.

On to “UGUUGUAUUACAGGAUAUCUAUUAGUGUUAUUUAGAGAAGGGUAUUCACAUGAGGAUCACCCAUGUAUAUACGAGGAAGUUGUG [JMF's solution 90] (Eterna round: R96, puzzle: Same State NG 1)”, for which the “apparent KD of MS2 coat protein” value was 65.1 nM (input ligand: FMN 200 uM), 37.4 nM under setting [1] and 57.4 nM (input ligand: none).

Source of the values: the supplement of paper PMC9170038.
